Kd data for 1 molecule are collected here from article PMC8938253.

The target of this data set is rhAChE (recombinant human acetylcholinesterase) (Homo sapiens, UniProt P22303 32-614). Put plainly: indirect ELISA. A general note: ELISA stands for enzyme-linked immunosorbent assay.
Chain of rhAChE (recombinant human acetylcholinesterase) (P22303 32-614): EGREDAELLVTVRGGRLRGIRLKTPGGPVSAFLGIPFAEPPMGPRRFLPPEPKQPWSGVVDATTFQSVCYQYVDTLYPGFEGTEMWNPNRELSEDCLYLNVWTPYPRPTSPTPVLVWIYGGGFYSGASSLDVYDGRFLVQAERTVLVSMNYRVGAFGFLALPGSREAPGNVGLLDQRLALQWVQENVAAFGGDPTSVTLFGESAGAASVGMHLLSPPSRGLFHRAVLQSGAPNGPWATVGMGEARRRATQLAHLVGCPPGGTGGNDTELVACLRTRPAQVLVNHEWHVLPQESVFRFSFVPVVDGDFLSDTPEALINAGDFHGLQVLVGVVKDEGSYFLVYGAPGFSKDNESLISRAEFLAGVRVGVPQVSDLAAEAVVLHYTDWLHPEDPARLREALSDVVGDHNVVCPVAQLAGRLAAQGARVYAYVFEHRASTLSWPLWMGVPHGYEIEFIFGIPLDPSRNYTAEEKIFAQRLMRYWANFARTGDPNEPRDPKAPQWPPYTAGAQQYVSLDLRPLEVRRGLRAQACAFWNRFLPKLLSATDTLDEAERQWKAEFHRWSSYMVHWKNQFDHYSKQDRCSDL

B1: Ob2 (ssDNA)
DNA: TAATACGACTCACTATAGCAATGGTACGGTACTTCCCTTCGAAAACACCCTGCCCCTCACACAAAAGTGCACGCTACTTTGCTAA
In general, Kd refers to the concentration at which binding is half-saturated. Consider B1, for which the Kd is 17.1 ± 9.86 nM.
